Drawing on patent US20260209345A1 (IOMX THERAPEUTICS, published 2026), this text covers IC50 and Kd for 13 molecules.

Test [1] has as its target T1, recombinant LILRB2 ECD (human, UniProt Q8N423 22-460).
T1 construct: also called biotinylated LILRB2 ECD
As to the kind of experiment: ELISA, LILRB2 ECD binding to HLA-G-Fc. The procedure: (§1) HLA-G inhibition was tested by ELISA. 384-well Maxisorp plates were coated with 2 ug/mL B2M-HLA-G fused to a mouse IgG2a-Fc and the plates were blocked with 2% (w/v) BSA in PBST. […] 15 ul of the antibody dilution series (300 nM to 0.3 nM) were mixed with 30 μL of the pre-mixed LILRB/Avidin-HRP solution (final antibody concentration 100 nM to 0.1 nM) and incubated for 1 h at room temperature. After three wash cycles with PBST, 20 μL of the antibody/LILRB/Avidin-HRP solution was transferred to the plate with immobilized HLA-G and incubated for 15 min at room temperature. After three wash cycles with PBST, residual LILRB binding to HLA-G was detected by developing the ELISA with TMB substrate.
Background: ELISA stands for enzyme-linked immunosorbent assay.

The target of test [2] is T2, recombinant LILRB1 ECD (human, UniProt Q8NHL6 24-461).
T2 construct: also called biotinylated LILRB1 ECD
T2 sequence (Q8NHL6 24-461 limits assumed): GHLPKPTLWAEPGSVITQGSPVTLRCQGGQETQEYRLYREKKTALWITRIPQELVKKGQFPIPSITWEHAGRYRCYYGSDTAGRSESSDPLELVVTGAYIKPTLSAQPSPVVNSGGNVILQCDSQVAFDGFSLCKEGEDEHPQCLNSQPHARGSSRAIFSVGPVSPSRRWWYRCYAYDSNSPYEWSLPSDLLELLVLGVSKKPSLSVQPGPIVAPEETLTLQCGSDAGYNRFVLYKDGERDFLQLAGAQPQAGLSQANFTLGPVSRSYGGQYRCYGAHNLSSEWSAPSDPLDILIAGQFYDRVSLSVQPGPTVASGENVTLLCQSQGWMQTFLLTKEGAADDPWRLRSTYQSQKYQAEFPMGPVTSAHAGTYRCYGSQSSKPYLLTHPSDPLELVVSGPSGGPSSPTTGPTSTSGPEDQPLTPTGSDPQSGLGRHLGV
As to the kind of experiment: ELISA, LILRB1 ECD binding to HLA-G-Fc. How it is done: as §1

In test [3] the target is T1, recombinant LILRB2 ECD. As to the kind of experiment: BLI, IgG on AHC sensor, ECD in solution. How it is done: (§2) Briefly, IgGs were captured on anti-human capture (AHC) biosensors (Sartorius). […] Subsequently, the sensors were dipped into 1× Kinetics Buffer to measure the dissociation over 420 s. All sensorgrams were double referenced against 1× Kinetics Buffer and unloaded […] sensors to subtract sensor drifts and potential reference binding of the analytes. The affinities were determined by applying a 1:1 binding model.
For orientation: In BLI a coated tip is dipped into the sample, and binding shifts an interference pattern.

For test [4], the target named is T3, recombinant LILRA1 ECD (human, UniProt O75019 17-461).
T3 construct: whole canonical entry named; also called LILA1
T3 sequence (O75019 17-461 limits assumed): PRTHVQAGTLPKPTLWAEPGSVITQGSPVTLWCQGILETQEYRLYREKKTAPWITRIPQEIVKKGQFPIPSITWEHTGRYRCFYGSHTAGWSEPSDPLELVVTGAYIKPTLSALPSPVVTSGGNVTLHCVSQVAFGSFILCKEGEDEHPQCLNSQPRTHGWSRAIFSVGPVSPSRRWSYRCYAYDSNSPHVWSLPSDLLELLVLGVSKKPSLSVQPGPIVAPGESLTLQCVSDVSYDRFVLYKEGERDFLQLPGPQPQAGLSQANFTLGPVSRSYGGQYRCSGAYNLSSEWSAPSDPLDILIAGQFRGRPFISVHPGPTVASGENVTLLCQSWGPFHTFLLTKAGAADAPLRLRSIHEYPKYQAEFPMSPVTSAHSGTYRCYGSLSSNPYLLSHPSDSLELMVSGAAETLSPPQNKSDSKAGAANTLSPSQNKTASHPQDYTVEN
As to the kind of experiment: BLI, IgG on AHC sensor, ECD in solution. The procedure: as §2

Test [5] deals with T4, recombinant LILRA3 (human, UniProt Q8N6C8 24-439).
T4 construct: whole entry named; also called LILRA3 ECD; LILA3
T4 sequence (Q8N6C8 24-439 limits assumed): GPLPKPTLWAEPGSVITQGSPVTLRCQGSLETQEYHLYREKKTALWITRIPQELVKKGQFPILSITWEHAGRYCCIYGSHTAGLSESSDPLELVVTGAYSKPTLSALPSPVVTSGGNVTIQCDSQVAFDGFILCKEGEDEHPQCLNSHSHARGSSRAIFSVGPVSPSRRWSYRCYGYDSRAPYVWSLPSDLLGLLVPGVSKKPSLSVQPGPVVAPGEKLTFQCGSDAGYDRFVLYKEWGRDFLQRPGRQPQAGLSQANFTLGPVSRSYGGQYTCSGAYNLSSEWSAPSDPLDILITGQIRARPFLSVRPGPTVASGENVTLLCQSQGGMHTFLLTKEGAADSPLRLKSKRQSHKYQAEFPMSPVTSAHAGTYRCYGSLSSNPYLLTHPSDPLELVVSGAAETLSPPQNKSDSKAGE
As to the kind of experiment: BLI, IgG on AHC sensor, ECD in solution. The procedure: as §2

In test [6] the target is T2, recombinant LILRB1 ECD. As to the kind of experiment: BLI, IgG on AHC sensor, ECD in solution. How it is done: as §2

Usually IC50 stands for the concentration that inhibits the measured activity by half. In general, Kd refers to the equilibrium constant for the complex coming apart.

T1 sequence (Q8N423 22-460 limits assumed): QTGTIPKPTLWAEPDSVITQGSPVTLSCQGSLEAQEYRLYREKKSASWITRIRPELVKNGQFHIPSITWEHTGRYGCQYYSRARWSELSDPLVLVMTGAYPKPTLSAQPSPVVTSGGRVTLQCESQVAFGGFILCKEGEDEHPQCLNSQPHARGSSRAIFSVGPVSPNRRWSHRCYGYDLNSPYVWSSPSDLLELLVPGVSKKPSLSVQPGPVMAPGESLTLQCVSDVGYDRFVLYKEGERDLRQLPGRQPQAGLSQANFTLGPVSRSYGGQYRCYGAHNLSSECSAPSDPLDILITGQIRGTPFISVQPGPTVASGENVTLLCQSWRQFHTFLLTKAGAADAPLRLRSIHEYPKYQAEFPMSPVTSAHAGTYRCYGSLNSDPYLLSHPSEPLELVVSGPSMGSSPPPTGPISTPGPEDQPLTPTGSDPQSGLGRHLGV

B1: A-017 (antibody, V domains shown)
VH: QVQLVQSGAEVKKPGSSVKVSCKASGGTFSSYAISWVRQAPGQGLEWMGGIIPYFSLANYAPKFQGRVTITADESTSTAYMELSSLRSEDTAVYYCAKDLGTYSSGWPYYYGMDVWGQGTTVTVSS
VL: SYELTQPPSVSVSPGQTASITCSGDKLGDKYASWYQQKPGQSPVLVIYQDSKRPSGIPERFSGSNSGNTATLTISGTQAEDEADYYCQSTTHTSFVFGGGTKLTVL
notes: tested as IgG
Consider B1, for which the values for the IC50 in test [1] and in test [2] were 4.4 nM and 4.5 nM, respectively. Also, the Kd in test [3] was 1.7 nM; in test [4], 591 nM; in test [5], 223 nM; in test [6], 2.3 nM.

B2: A-020 (antibody, V domains shown)
VH: QVQLVQSGAEVKKPGSSVKVSCKASGGTFQTYAISWVRQAPGQGLEWMGSIIPKFYQSNYAYKFQGRVTITADESTSTAYMELSSLRSEDTAVYYCAKDLGTYSSGWPYYYGMDVWGQGTTVTVSS
VL: SYELTQPPSVSVSPGQTASITCSGDKLGDKYASWYQQKPGQSPVLVIYQDSKRPSGIPERFSGSNSGNTATLTISGTQAEDEADYYCQSTTHTSFVFGGGTKLTVL
notes: tested as IgG
Take B2: the figures for the IC50 in test [1] and in test [2] were 3.8 nM and 3.7 nM, respectively. The Kd in test [3] worked out at 2.9 nM; in test [4], 316 nM; in test [5] it was 392 nM; in test [6] it was 21.2 nM.

B3: A-018 (antibody, V domains shown)
VH: QVQLVQSGAEVKKPGSSVKVSCKASGGTFSTSAISWVRQAPGQGLEWMGGIIPIFYTANYAQKFQGRVTITADESTSTAYMELSSLRSEDTAVYYCAKDLGTYSSGWPYYYGMDVWGQGTTVTVSS
VL: SYELTQPPSVSVSPGQTASITCSGDKLGDKYASWYQQKPGQSPVLVIYQDSKRPSGIPERFSGSNSGNTATLTISGTQAEDEADYYCQSTTHTSFVFGGGTKLTVL
notes: tested as IgG
As for B3, the IC50 in test [1] was 5.1 nM; in test [2], 5 nM. The equilibrium dissociation constant (Kd) is 2.7 nM in test [3], 808 nM in test [4], 212 nM in test [5] and 6.2 nM in test [6].

B4: A-034 (antibody, V domains shown)
VH: QVQLVQSGAEVKKPGSSVKVSCKASGGTFSSYAISWVRQAPGQGLEWMGGIIPIFGTANYAQKFQGRVTITADESTSTAYMELSSLRSEDTAVYYCAKDLGTYSSGWPYYYGMDVWGQGTTVTVSS
VL: SYELTQPPSVSVSPGQTASITCSGDKLGDKYASWYQQKPGQSPVLVIYQDSKRPSGIPERFSGSNSGNTATLTISGTQAEDEADYYCQLYGHTITVFGGGTKLTVL
notes: tested as IgG
For the molecule B4, the IC50 in test [1] is 5.6 nM; in test [2], 3.3 nM. Moreover, the Kd came out at 82.7 nM in test [3], 2690 nM in test [4], 678 nM in test [5] and 16.4 nM in test [6].

B5: A-035 (antibody, V domains shown)
VH: QVQLVQSGAEVKKPGSSVKVSCKASGGTFSSYAISWVRQAPGQGLEWMGGIIPIFGTANYAQKFQGRVTITADESTSTAYMELSSLRSEDTAVYYCAKDLGTYSSGWPYYYGMDVWGQGTTVTVSS
VL: SYELTQPPSVSVSPGQTASITCSGDKLGDKYASWYQQKPGQSPVLVIYQDSKRPSGIPERFSGSNSGNTATLTISGTQAEDEADYYCQLSHGTLLVFGGGTKLTVL
notes: tested as IgG
With B5, the IC50 was found to be 3.5 nM in test [1] and 1.7 nM in test [2]. Moreover, the Kd was 30.8 nM in test [3], 734 nM in test [4], 1250 nM in test [5] and 12.9 nM in test [6].

B6: A-019 (antibody, V domains shown)
VH: QVQLVQSGAEVKKPGSSVKVSCKASGYTFTTSAMNWVRQAPGQGLEWMGGIIPYFSTANYAPKFQGRVTITADESTSTAYMELSSLRSEDTAVYYCAKDLGTYSSGWPYYYGMDVWGQGTTVTVSS
VL: SYELTQPPSVSVSPGQTASITCSGDKLGDKYASWYQQKPGQSPVLVIYQDSKRPSGIPERFSGSNSGNTATLTISGTQAEDEADYYCQSTTHTSFVFGGGTKLTVL
notes: tested as IgG
Turning to B6, the IC50 came to 4.9 nM in test [1] and 4 nM in test [2]. The Kd in test [3] is 3.9 nM; in test [4], 1030 nM; in test [5], 144 nM; in test [6] it was 20.7 nM.

B7: A-021 (antibody, V domains shown)
VH: QVQLVQSGAEVKKPGSSVKVSCKASGGSITSYAFAWVRQAPGQGLEWMGGIIPGFYAANYAQKFQGRVTITADESTSTAYMELSSLRSEDTAVYYCAKDLGTYSSGWPYYYGMDVWGQGTTVTVSS
VL: SYELTQPPSVSVSPGQTASITCSGDKLGDKYASWYQQKPGQSPVLVIYQDSKRPSGIPERFSGSNSGNTATLTISGTQAEDEADYYCQSTTHTSFVFGGGTKLTVL
notes: tested as IgG
Take B7: the IC50 in test [1] came to 5 nM; in test [2], 4.2 nM. The Kd turned out to be 3.1 nM in test [3], 541 nM in test [4], 157 nM in test [5] and 4.9 nM in test [6].

B8: A-003 (antibody, V domains shown)
VH: QVQLVQSGAEVKKPGSSVKVSCKASGGTFSSYAISWVRQAPGQGLEWMGGIIPIFGTANYAQKFQGRVTITADESTSTAYMELSSLRSEDTAVYYCAKGPPVGSSSWYTDWYFDLWGRGTLVTVSS
VL: SYELTQPPSVSVSPGQTASITCSGDKLGDKYASWYQQKPGQSPVLVIYQDSKRPSGIPERFSGSNSGNTATLTISGTQAEDEADYYCLSYGAHSHGVVFGGGTKLTVL
notes: tested as IgG; also called parental antibody A-003
Consider B8, for which the values for the IC50 in test [1] and in test [2] were 65.8 nM and 16.5 nM, respectively. Also, the Kd came to 73.1 nM in test [3], 342 nM in test [4], 519 nM in test [5] and 99.4 nM in test [6].

B9: A-024 (antibody, V domains shown)
VH: QVQLVQSGAEVKKPGSSVKVSCKASGYTFTGSAMSWVRQAPGQGLEWMGGILPIFGTSVYAQKFQGRVTITADESTSTAYMELSSLRSEDTAVYYCAKGPPVGSSSWYTDWYFDLWGRGTLVTVSS
VL: SYELTQPPSVSVSPGQTASITCSGDKLGDKYASWYQQKPGQSPVLVIYQDSKRPSGIPERFSGSNSGNTATLTISGTQAEDEADYYCLSYGAHSHGVVFGGGTKLTVL
notes: tested as IgG
For B9, the IC50 in test [1] is 3.3 nM; in test [2] it was 3.9 nM. The Kd in test [3] came to 3.6 nM; in test [4], 31.8 nM; in test [5], 64.8 nM; in test [6] it was 1.2 nM.

B10: A-025 (antibody, V domains shown)
VH: QVQLVQSGAEVKKPGSSVKVSCKASGYTFSKSAMSWVRQAPGQGLEWMGGIVPKFHTSVYAQKFQGRVTITADESTSTAYMELSSLRSEDTAVYYCAKGPPVGSSSWYTDWYFDLWGRGTLVTVSS
VL: SYELTQPPSVSVSPGQTASITCSGDKLGDKYASWYQQKPGQSPVLVIYQDSKRPSGIPERFSGSNSGNTATLTISGTQAEDEADYYCLSYGAHSHGVVFGGGTKLTVL
notes: tested as IgG
For B10, the figures for the IC50 in test [1] and in test [2] were 4.3 nM and 5.1 nM, respectively. The Kd in test [3] worked out at 4.2 nM; in test [4], 71.3 nM; in test [5] it was 166 nM; in test [6], 1.8 nM.

B11: A-027 (antibody, V domains shown)
VH: QVQLVQSGAEVKKPGSSVKVSCKASGGSFTGYAISWVRQAPGQGLEWMGGILPSFYTAVYAQKFQGRVTITADESTSTAYMELSSLRSEDTAVYYCAKGPPVGSSSWYTDWYFDLWGRGTLVTVSS
VL: SYELTQPPSVSVSPGQTASITCSGDKLGDKYASWYQQKPGQSPVLVIYQDSKRPSGIPERFSGSNSGNTATLTISGTQAEDEADYYCLSYGAHSHGVVFGGGTKLTVL
notes: tested as IgG
Turning to B11, the IC50 in test [1] amounted to 5.6 nM; in test [2] it was 7 nM. For the same molecule, the Kd in test [3] worked out at 1.9 nM; in test [4], 33.9 nM; in test [5], 124 nM; in test [6], 0.5 nM.

B12: A-026 (antibody, V domains shown)
VH: QVQLVQSGAEVKKPGSSVKVSCKASGYTFTSHGMSWVRQAPGQGLEWMGGILPIFHTATYAQKFQGRVTITADESTSTAYMELSSLRSEDTAVYYCAKGPPVGSSSWYTDWYFDLWGRGTLVTVSS
VL: SYELTQPPSVSVSPGQTASITCSGDKLGDKYASWYQQKPGQSPVLVIYQDSKRPSGIPERFSGSNSGNTATLTISGTQAEDEADYYCLSYGAHSHGVVFGGGTKLTVL
notes: tested as IgG
On to B12, for which the figures for the IC50 in test [1] and in test [2] were 5.3 nM and 6.1 nM, respectively. For the same molecule, the Kd worked out at 3.9 nM in test [3], 120 nM in test [4], 79.3 nM in test [5] and 4.4 nM in test [6].

B13: A-023 (antibody, V domains shown)
VH: QVQLVQSGAEVKKPGSSVKVSCKASGYTFQQYAMSWVRQAPGQGLEWIGGIIPQFSTSVYAQKFQGRVTITADESTSTAYMELSSLRSEDTAVYYCAKGPPVGSSSWYTDWYFDLWGRGTLVTVSS
VL: SYELTQPPSVSVSPGQTASITCSGDKLGDKYASWYQQKPGQSPVLVIYQDSKRPSGIPERFSGSNSGNTATLTISGTQAEDEADYYCLSYGAHSHGVVFGGGTKLTVL
notes: tested as IgG
In the case of B13, the IC50 was 6.8 nM in test [1] and 7.5 nM in test [2]. Besides, the Kd in test [3] was found to be 4.3 nM; in test [4], 82.4 nM; in test [5] it was 230 nM; in test [6], 3.1 nM.
